Data published in US12553037B2, “Engineered class 2, type V repressor systems” (Scribe Therapeutics Inc., priority 2021, dated 2026).

Legend:
[1] = tested on: endogenous B2M (beta-2-microglobulin) gene; test: B2M protein expression by HLA antibody staining and flow cytometry (Example 1); type: cell-based, human; conditions: HEK293T, seven days post-transfection
Description: dXR variant plasmids encoding constructs having the configuration of U6-gRNA+Ef1α-NLS-GGS-dCasX491-GGS-KRAB variant-NLS (dCasX491 refers to catalytically-dead CasX 491), were transiently transfected into HEK293T cells in an arrayed 96-well format. These constructs also contained a 2× FLAG sequence, as well as sequences encoding either a gRNA scaffold 174 (SEQ ID NO: 2238) having a spacer (spacer 7.37) targeting the endogenous B2M (beta-2-microglobulin) gene or a non-targeting control (spacer 0.0), which were all cloned upstream of a P2A-puromycin element on the plasmid. Four different effector domains were tested in addition to the “naked” dCasX491 (KRAB variant domains listed in Table 9; spacer sequences listed in Table 10; sequences of additional elements listed in Table 11). The corresponding protein sequences of the dXR molecule are listed in Table 13, and the generic configuration of the dXR molecule is illustrated in FIG. 38. Positive and negative controls based on a catalytically-dead Cas9 nuclease (with or without a ZNF10 repressor) with a B2M-targeting gRNA (spacer 7.14) or a non-targeting gRNA control (spacer 0.0) were included, along with a catalytically-active CasX 491 and gRNA with the same 7.37 and 0.0 spacers. Two days after transfection, total RNA was harvested, and reverse transcribed to generate a cDNA library. Changes in gene expression were calculated by performing qPCR on the targeted gene and a housekeeping gene as reference. Relative gene expression represents the amount of target-specific RNA relative to a reference gene normalized to the non-targeting guide condition for two biological replicates. In addition to the wells used for RNA measurements, a separate set of wells was harvested seven days post-transfection and analyzed for B2M protein expression. Expression of B2M protein was determined by using an antibody that detects the B2M-dependent HLA protein complex on the cell surface.

human B2M locus = test: Editing (indel rate by NGS) at the B2M locus by catalytically-dead CasX variants (Example 8); type: cell-based; conditions: B2M-targeting spacer 7.37, HEK293T, six days after transfection

Row | Molecule | % cells expressing B2M protein ([1]; spacer 0.0 (non-targeting)) | % cells expressing B2M protein ([1]; spacer 7.37 (B2M-targeting, CasX)) | percent editing at the B2M locus measured as indel rate (human B2M locus) | % of cells negative for the B2M protein ([1]; B2M-targeting gRNA)
1 | dXR4: dCasX491 fused to ZNF334 KRAB domain; protein SEQ ID NO: 59441 (protein) MAPKKKRKVSRGGSGGGSAQEIKRINKIRRRLVKDSNTKKAGKTGPMKTLLVRVMTPDLRERLENLRKKPENIPQPISNTSRANLNKLLTDYTEMKKAILHVYWEEFQKDPVGLMSRVAQPASKKIDQNKLKPEMDEKGNLTTAGFACSQCGQPLFVYKLEQVSEKGKAYTNYFGRCNVAEHEKLILLAQLKPEKDSDEAVTYSLGKFGQRALDFYSIHVTKESTHPVKPLAQIAGNRYASGPVGKALSDACMGTIASFLSKYQDIIIEHQKVVKGNQKRLESLRELAGKENLEYPSVTLPPQPHTKEGVDAYNEVIARVRMWVNLNLWQKLKLSRDDAKPLLRLKGFPSFPLVERQANEVDWWDMVCNVKKLINEKKEDGKVFWQNLAGYKRQEALRPYLSSEEDRKKGKKFARYQLGDLLLHLEKKHGEDWGKVYDEAWERIDKKVEGLSKHIKLEEERRSEDAQSKAALTDWLRAKASFVIEGLKEADKDEFCRCELKLQKWYGDLRGKPFAIEAENSILDISGFSKQYNCAFIWQKDGVKKLNLYLIINYFKGGKLRFKKIKPEAFEANRFYTVINKKSGEIVPMEVNFNFDDPNLIILPLAFGKRQGREFIWNDLLSLETGSLKLANGRVIEKTLYNRRTRQDEPALFVALTFERREVLDSSNIKPMNLIGVARGENIPAVIALTDPEGCPLSRFKDSLGNPTHILRIGESYKEKQRTIQAKKEVEQRRAGGYSRKYASKAKNLADDMVRNTARDLLYYAVTQDAMLIFANLSRGFGRQGKRTFMAERQYTRMEDWLTAKLAYEGLSKTYLSKTLAQYTSKTCSNCGFTITSADYDRVLEKLKKTATGWMTTINGKELKVEGQITYYNRYKRQNVVKDLSVELDRLSEESVNNDISSWTKGRSGEALSLLKKRFSHRPVQEKFVCLNCGFETHAAEQAALNIARSWLFLRSQEYKKYQTNKTTGNTDKRAFVETWQSFYRKKLKEVWKPAVRSGGSGGGSTSKMKKFQIPVSFQDLTVNFTQEEWQQLDPAQRLLYRDVMLENYSNLVSVGYHVSKPDVIFKLEQGEEPWIVEEFSNQNYPDTSPKKKRKV | 98.23% | 19.80% |  | 
2 | dCasX527: dCasX variant, SEQ ID NO: 24 (protein) QEIKRINKIRRRLVKDSNTKKAGKTRGPMKTLLVRVMTPDLRERLENLRKKPENIPQPISNTSRANLNKLLTDYTEMKKAILHVYWEEFQKDPVGLMSRVAQPASKKIDQNKLKPEMDEKGNLTTAGFACSQCGQPLFVYKLEQVSEKGKAYTNYFGRCNVAEHEKLILLAQLKPEKDSDEAVTYSLGKFGQRALDFYSIHVTKESTHPVKPLAQIAGNRYASGPVGKALSDACMGTIASFLSKYQDIIIEHQKVVKGNQKRLESLRELAGKENLEYPSVTLPPQPHTKEGVDAYNEVIARVRMWVNLNLWQKLKLSRDDAKPLLRLKGFPSFPLVERQANEVDWWDMVCNVKKLINEKKEDGKVFWQNLAGYKRQEALRPYLSSEEDRKKGKKFARYQLGDLLLHLEKKHGEDWGKVYDEAWERIDKKVEGLSKHIKLEEERRSEDAQSKAALTDWLRAKASFVIEGLKEADKDEFCRCELKLQKWYGDLRGKPFAIEAENSILDISGFSKQYNCAFIWQKDGVKKLNLYLIINYFKGGKLRFKKIKPEAFEANRFYTVINKKSGEIVPMEVNFNFDDPNLIILPLAFGKRQGREFIWNDLLSLETGSLKLANGRVIEKTLYNRRTRQDEPALFVALTFERREVLDSSNIKPMNLIGVARGENIPAVIALTDPEGCPLSRFKDSLGNPTHILRIGESYKEKQRTIQAKKEVEQRRAGGYSRKYASKAKNLADDMVRNTARDLLYYAVTQDAMLIFANLSRGFGRQGKRTFMAERQYTRMEDWLTAKLAYEGLSKTYLSKTLAQYTSKTCSNCGFTITSADYDRVLEKLKKTATGWMTTINGKELKVEGQITYYNRYKRQNVVKDLSVELDRLSEESVNNDISSWTKGRSGEALSLLKKRFSHRPVQEKFVCLNCGFETHAAEQAALNIARSWLFLRSQEYKKYQTNKTTGNTDKRAFVETWQSFYRKKLKEVWKPAV |  |  | did not exhibit editing | 
3 | dCasX491: catalytically-dead CasX 491, SEQ ID NO: 18 (protein) QEIKRINKIRRRLVKDSNTKKAGKTGPMKTLLVRVMTPDLRERLENLRKKPENIPQPISNTSRANLNKLLTDYTEMKKAILHVYWEEFQKDPVGLMSRVAQPASKKIDQNKLKPEMDEKGNLTTAGFACSQCGQPLFVYKLEQVSEKGKAYTNYFGRCNVAEHEKLILLAQLKPEKDSDEAVTYSLGKFGQRALDFYSIHVTKESTHPVKPLAQIAGNRYASGPVGKALSDACMGTIASFLSKYQDIIIEHQKVVKGNQKRLESLRELAGKENLEYPSVTLPPQPHTKEGVDAYNEVIARVRMWVNLNLWQKLKLSRDDAKPLLRLKGFPSFPLVERQANEVDWWDMVCNVKKLINEKKEDGKVFWQNLAGYKRQEALRPYLSSEEDRKKGKKFARYQLGDLLLHLEKKHGEDWGKVYDEAWERIDKKVEGLSKHIKLEEERRSEDAQSKAALTDWLRAKASFVIEGLKEADKDEFCRCELKLQKWYGDLRGKPFAIEAENSILDISGFSKQYNCAFIWQKDGVKKLNLYLIINYFKGGKLRFKKIKPEAFEANRFYTVINKKSGEIVPMEVNFNFDDPNLIILPLAFGKRQGREFIWNDLLSLETGSLKLANGRVIEKTLYNRRTRQDEPALFVALTFERREVLDSSNIKPMNLIGVARGENIPAVIALTDPEGCPLSRFKDSLGNPTHILRIGESYKEKQRTIQAKKEVEQRRAGGYSRKYASKAKNLADDMVRNTARDLLYYAVTQDAMLIFANLSRGFGRQGKRTFMAERQYTRMEDWLTAKLAYEGLSKTYLSKTLAQYTSKTCSNCGFTITSADYDRVLEKLKKTATGWMTTINGKELKVEGQITYYNRYKRQNVVKDLSVELDRLSEESVNNDISSWTKGRSGEALSLLKKRFSHRPVQEKFVCLNCGFETHAAEQAALNIARSWLFLRSQEYKKYQTNKTTGNTDKRAFVETWQSFYRKKLKEVWKPAV |  |  | did not exhibit editing | ~10%
4 | dCasX668: dCasX variant, SEQ ID NO: 59355 (protein) QEIKRINKIRRRLVKDSNTKKAGKTRGPMKTLLVRVMTPDLRERLENLRKKPENIPQPISNTSRANLNKLLTDYTEMKKAILHVYWEEFQKDPVGLMSRVAQPASKKIDQNKLKPEMDEKGNLTTAGFACSQCGQPLFVYKLEQVSEKGKAYTNYFGRCNVAEHEKLILLAQLKPEKDSDEAVTYSLGKFGQRALDFYSIHVTKESTHPVKPLAQIAGNRYASSPVGKALSDACMGTIASFLSKYQDIIIEHQKVVKGNQKRLESLRELAGKENLEYPSVTLPPQPHTKEGVDAYNEVIARVRMWVNLNLWQKLKLSRDDAKPLLRLKGFPSFPLVERQANEVDWWDMVCNVKKLINEKKEDGKVFWQNLAGYKRQEALRPYLSSEEDRKKGKKFARYQLGDLLLHLEKKHGEDWGKVYDEAWERIDKKVEGLSKHIKLEEERRSEDAQSKAALTDWLRAKASFVIEGLKEADKDEFCRCELKLQKWYGDLRGKPFAIEAENSILDISGFSKQYNCAFIWQKDGVKKLNLYLIINYFKGGKLRFKKIKPEAFEANRFYTVINKKSGEIVPMEVNFNFDDPNLIILPLAFGKRQGREFIWNDLLSLETGSLKLANGRVIEKTLYNRRTRQDEPALFVALTFERREVLDSSNIKPMNLIGVARGENIPAVIALTDPEGCPLSRFKDSLGNPTHILRIGESYKEKQRTIQAKKEVEQRRAGGYSRKYASKAKNLADDMVRNTARDLLYYAVTQDAMLIFANLSRGFGRQGKRTFMAERQYTRMEDWLTAKLAYEGLPSKTYLSKTLAQYTSKTCSNCGFTITSADYDRVLEKLKKTATGWMTTINGKELKVEGQITYYNRYKRQNVVKDLSVELDRLSEESVNNDISSWTKGRSGEALSLLKKRFSHRPVQEKFVCLNCGFETHAAEQAALNIARSWLFLRSQEYKKYQTNKTTGNTDKRAFVETWQSFYRKKLKEVWKPAV |  |  | did not exhibit editing | 
5 | dCasX676: dCasX variant, SEQ ID NO: 59357 (protein) QEIKRINKIRRRLVKDSNTKKAGKTRGPMKTLLVRVMTPDLRERLENLRKKPENIPQPISNTSRANLNKLLTDYTEMKKAILHVYWEEFQKDPVGLMSRVAQPASKKIDQNKLKPEMDEKGNLTTAGFACSQCGQPLFVYKLEQVSEKGKAYTNYFGRCNVAEHEKLIKLAQLKPEKDSDEAVTYSLGKFGQRALDFYSIHVTKESTHPVKPLAQIAGNRYASSPVGKALSDACMGTIASFLSKYQDIIIEHQKVVKGNQKRLESLRELAGKENLEYPSVTLPPQPHTKEGVDAYNEVIARVRMWVNLNLWQKLKLSRDDAKPLLRLKGFPSFPLVERQANEVDWWDMVCNVKKLINEKKEDGKVFWQNLAGYKRQEALRPYLSSEEDRKKGKKFARYQLGDLLLHLEKKHGEDWGKVYDEAWERIDKKVEGLSKHIKLEEERRSEDAQSKAALTDWLRAKASFVIEGLKEADKDEFCRCELKLQKWYGDLRGKPFAIEAENSILDISGFSKQYNCAFIWQKDGVKKLNLYLIINYFKGGKLRFKKIKPEAFEANRFYTVINKKSGEIVPMEVNFNFDDPNLIILPLAFGKRQGREFIWNDLLSLETGSLKLANGRVIEKTLYNRRTRQDEPALFVALTFERREVLDSSNIKPMNLIGVARGENIPAVIALTDPEGCPLSRFKDSLGNPTHILRIGESYKEKQRTIQAKKEVEQRRAGGYSRKYASKAKNLADDMVRNTARDLLYYAVTQDAMLIFANLSRGFGRQGKRTFMAERQYTRMEDWLTAKLAYEGLPSKTYLSKTLAQYTSKTCSNCGFTITSADYDRVLEKLKKTATGWMTTINGKELKVEGQITYYNRYKRQNVVKDLSVELDRLSEESVNNDISSWTKGRSGEALSLLKKRFSHRPVQEKFVCLNCGFETHAAEQAALNIARSWLFLRSQEYKKYQTNKTTGNTDKRAFVETWQSFYRKKLKEVWKPAV |  |  | did not exhibit editing | 
